In IntAct's records for PubMed 17161399:

B1: Protein VAC14 homolog (Homo sapiens), Q08AM6 (parent)
chain: MNPEKDFAPLTPNIVRALNDKLYEKRKVAALEIEKLVREFVAQNNTVQIKHVIQTLSQEFALSQHPHSRKGGLIGLAACSIALGKDSGLYLKELIEPVLTCFNDADSRLRYYACEALYNIVKVARGAVLPHFNVLFDGLSKLAADPDPNVKSGSELLDRLLKDIVTESNKFDLVSFIPLLRERIYSNNQYARQFIISWILVLESVPDINLLDYLPEILDGLFQILGDNGKEIRKMCEVVLGEFLKEIKKNPSSVKFAEMANILVIHCQTTDDLIQLTAMCWMREFIQLAGRVMLPYSSGILTAVLPCLAYDDRKKSIKEVANVCNQSLMKLVTPEDDELDELRPGQRQAEPTPDDALPKQEGTASGGPDGSCDSSFSSGISVFTAASTERAPVTLHLDGIVQVLNCHLSDTAIGMMTRIAVLKWLYHLYIKTPRKMFRHTDSLFPILLQTLSDESDEVILKDLEVLAEIASSPAGQTDDPGPLDGPDLQASHSELQVPTPGRAGLLNTSGTKGLECSPSTPTMNSYFYKFMINLLKRFSSERKLLEVRGPFIIRQLCLLLNAENIFHSMADILLREEDLKFASTMVHALNTILLTSTELFQLRNQLKDLKTLESQNLFCCLYRSWCHNPVTTVSLCFLTQNYRHAYDLIQKFGDLEVTVDFLAEVDKLVQLIECPIFTYLRLQLLDVKNNPYLIKALYGLLMLLPQSSAFQLLSHRLQCVPNPELLQTEDSLKAAPKSQKADSPSIDYAELLQHFEKVQNKHLEVRHQRSGRGDHLDRRVVL

Variants of: B1
Details: with nos1_human NOS1, P29475
Chain of nos1_human NOS1, P29475 (P29475 whole entry): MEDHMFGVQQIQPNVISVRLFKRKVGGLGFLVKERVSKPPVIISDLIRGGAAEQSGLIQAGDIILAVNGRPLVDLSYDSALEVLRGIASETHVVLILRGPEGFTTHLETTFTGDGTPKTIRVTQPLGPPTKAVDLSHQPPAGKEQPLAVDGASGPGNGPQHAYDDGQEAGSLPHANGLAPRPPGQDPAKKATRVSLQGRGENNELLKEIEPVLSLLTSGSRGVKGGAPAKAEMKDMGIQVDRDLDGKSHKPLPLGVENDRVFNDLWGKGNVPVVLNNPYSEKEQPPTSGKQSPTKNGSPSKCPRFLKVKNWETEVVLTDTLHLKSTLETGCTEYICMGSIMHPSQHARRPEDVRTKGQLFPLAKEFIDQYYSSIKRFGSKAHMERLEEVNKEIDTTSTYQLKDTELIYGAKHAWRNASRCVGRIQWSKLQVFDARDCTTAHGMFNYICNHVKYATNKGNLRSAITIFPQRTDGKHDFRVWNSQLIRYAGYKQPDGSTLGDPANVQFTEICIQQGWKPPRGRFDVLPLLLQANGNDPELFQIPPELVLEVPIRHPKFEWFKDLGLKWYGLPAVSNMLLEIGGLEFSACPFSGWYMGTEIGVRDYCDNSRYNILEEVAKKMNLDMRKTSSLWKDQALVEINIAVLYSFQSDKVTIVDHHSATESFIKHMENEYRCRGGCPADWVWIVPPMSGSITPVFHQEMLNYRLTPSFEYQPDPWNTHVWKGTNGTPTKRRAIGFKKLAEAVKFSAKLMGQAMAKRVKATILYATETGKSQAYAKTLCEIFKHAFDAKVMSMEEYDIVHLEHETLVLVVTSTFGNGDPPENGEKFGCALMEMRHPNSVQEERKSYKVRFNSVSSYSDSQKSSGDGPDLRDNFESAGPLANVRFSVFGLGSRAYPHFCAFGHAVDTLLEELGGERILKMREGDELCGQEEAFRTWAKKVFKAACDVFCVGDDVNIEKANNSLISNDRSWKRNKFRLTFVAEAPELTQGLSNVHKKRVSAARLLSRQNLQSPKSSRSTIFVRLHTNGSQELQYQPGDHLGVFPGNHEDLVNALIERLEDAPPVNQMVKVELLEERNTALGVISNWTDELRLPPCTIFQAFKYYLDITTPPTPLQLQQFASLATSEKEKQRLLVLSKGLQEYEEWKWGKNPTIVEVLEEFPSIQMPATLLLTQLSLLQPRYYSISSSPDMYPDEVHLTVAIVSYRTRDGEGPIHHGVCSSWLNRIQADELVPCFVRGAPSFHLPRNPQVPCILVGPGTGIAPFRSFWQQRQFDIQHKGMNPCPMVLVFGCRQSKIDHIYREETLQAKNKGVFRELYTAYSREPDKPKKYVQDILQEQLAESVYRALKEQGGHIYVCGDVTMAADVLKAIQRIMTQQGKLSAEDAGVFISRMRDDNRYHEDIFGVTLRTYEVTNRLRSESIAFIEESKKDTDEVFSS

| Variant | effect of a mutation on the interaction |
| --- | --- |
| L776A | disrupting interaction |
| D774A | disrupting interaction |
| G773A | decreasing interaction |

Variants of: B1
Details: with nos1_human NOS1, P29475
Remark: another data set of the same source

| Variant | effect of a mutation on the interaction |
| --- | --- |
| D777A | disrupting interaction |
